Measurements: patent US20150104459A1

Legend:
[1] = target: M2 protein of influenza A/Japan/305/57 (H2N2), on inactivated whole virions (influenza A virus A/Japan/305/57 (H2N2)); test: ELISA, positive control antibody on inactivated whole virions
[2] = target: recombinant soluble homotrimeric HA of A/common magpie/Hong Kong/5052/07 (H5N1) (Influenza A virus A/common magpie/Hong Kong/5052/2007 (H5N1)); test: HA microarray, control mAb

Chain of TCN-032 (8I10) (antibody) (VH): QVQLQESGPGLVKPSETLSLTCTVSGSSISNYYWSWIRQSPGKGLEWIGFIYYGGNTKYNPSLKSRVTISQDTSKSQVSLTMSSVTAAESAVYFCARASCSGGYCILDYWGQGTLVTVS
Chain of TCN-032 (8I10) (antibody) (VL): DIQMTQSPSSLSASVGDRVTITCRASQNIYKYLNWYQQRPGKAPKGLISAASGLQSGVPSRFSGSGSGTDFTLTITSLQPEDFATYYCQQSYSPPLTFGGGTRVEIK

## TCN-032 (8I10) (antibody)
[1]
  ELISA virus binding (OD450): 3.61 OD450

## TCN-202 (2N9) (antibody)
[2]
  Trimeric HA Binding RLU: 162 RLU
